# Assay results as given in article PMC8863788, “A multiparametric fluorescence assay for screening aptamer–protein interactions based on microbeads”.
# Legend:
# Experiment in all cases: fluorescent microbead binding (VideoScan)
# Thrombin = Thrombin (UniProt P00734;P00734 328-363;364-622)
# PfLDH = PfLDH (UniProt Q76NM3 1-316); conditions: protein: recombinant; chain copies: 4
# Interferon gamma (IFNγ) = Interferon gamma (IFNγ) (UniProt P01579 24-161); conditions: protein: commercial; chain copies: 2
# Chain of Interferon gamma (IFNγ) (P01579 24-161): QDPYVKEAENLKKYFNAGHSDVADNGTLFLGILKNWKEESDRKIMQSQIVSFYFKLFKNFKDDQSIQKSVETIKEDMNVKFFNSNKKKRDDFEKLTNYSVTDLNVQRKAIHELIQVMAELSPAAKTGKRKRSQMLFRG
binder,measurement,setting,value
CTGGGCGGTAGAACCATAGTGACCCAGCCGTCTAC (structured_DNA) [PfLDH-apta],binding signal,Thrombin,~8 fold signal increase
same,binding signal,PfLDH,~2 fold signal vs no divalent cations
same,binding signal,Interferon gamma (IFNγ),~6 fold signal increase
